Results as given in patent US6294648, “Protein having proteinase inhibitor activity” (Bayer Corporation, dated 2001).

Tests used:
[1] = biological target: T1, Human neutrophil cathepsin G (human, UniProt P08311); assay: enzyme inhibition; 30 min preincubation at 37 C; Suc-AAPF-AMC hydrolysis by fluorescence; Ki* corrected for substrate
T1 sequence: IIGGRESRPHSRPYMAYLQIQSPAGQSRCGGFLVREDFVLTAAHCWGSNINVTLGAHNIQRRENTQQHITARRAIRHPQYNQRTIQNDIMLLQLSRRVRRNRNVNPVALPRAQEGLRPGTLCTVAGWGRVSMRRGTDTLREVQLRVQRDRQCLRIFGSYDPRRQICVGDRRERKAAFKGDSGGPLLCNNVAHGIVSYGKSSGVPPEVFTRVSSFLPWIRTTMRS
Protocol: (§1) The BTL.009 concentration was determined by amino acid analysis. The concentration of human neutrophil elastase, cathepsin G, and proteinase 3 were based on the manufacturer's specifications. […] Hydrolysis of AMC-conjugated peptides was monitored on a Hitachi model F4500 fluorometer (excitation=370 nm, emission=432 nm) over the first 2 minutes of the reaction. Ki* values were determined from plots of fractional rate versus inhibitor concentration, which were fit by nonlinear regression analysis (Enzifitter™ by Bio soft, Cambridge UK) as described (44). Ki values were obtained by correction for the effect of substrate as described (44).

[2] = biological target: Human neutrophil elastase (human, UniProt P08246); assay: enzyme inhibition; 30 min preincubation at 37 C; Suc-AAPV-AMC hydrolysis by fluorescence; Ki* corrected for substrate
Protocol: as §1

[3] = biological target: T2, Human neutrophil proteinase 3 (human, UniProt P24158); assay: as above
T2 sequence: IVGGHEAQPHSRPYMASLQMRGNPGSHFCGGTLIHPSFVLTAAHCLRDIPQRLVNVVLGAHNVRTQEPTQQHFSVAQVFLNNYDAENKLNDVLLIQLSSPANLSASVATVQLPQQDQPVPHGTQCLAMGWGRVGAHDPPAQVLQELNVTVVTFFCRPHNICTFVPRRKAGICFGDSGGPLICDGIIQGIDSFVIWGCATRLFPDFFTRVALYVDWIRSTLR
Protocol: as §1

B1: BTL.009 (other)
chain: KQDVCEMPKETGPCLAYFLHWWYDKKDNTCSMFVYGGCQGNNNNFQSKANCLNTC
Ki [1]: 1800 nM
Ki [2]: 8 nM
Ki [3]: 190 nM
